Assay results as given in patent publication US20190085029.

System: T1, CDK5 inhibitory (CDK5i) peptide
T1 sequence: ARAFGIPVRCYS

Purified recombinant p25/CDK5 complex was tested, and the “CDK5 kinase activity (radiolabeled ATP and its substrate, H1)” value was “the CDK5i peptide significantly reduced CDK5 kinase activity compared to that from a scrambled peptide-treated group”.
